Data taken from patent publication US20030207391A1 (published 2003).

Molecular target: T1, soluble FLT-1 (sFLT-1) (Homo sapiens, UniProt P17948-2 27-687, limits assumed)
T1 construct: the whole FLT-1 entry is named
Experiment: BIAcore; 50 nM sFLT-1 pre-incubated overnight with 50 µg/ml construct, passed over immobilised mAb 2B2
Experimental: Binding of Domain 4 on sFLT-1 is determined using Biomolecular Interaction Analysis (Biacore). (Fisher R. J. and Fivash, M. (1994) Curr. Opin. Biotech. 5, 389-395).
A monoclonal antibody (2B2) specific to Domains 1 to 3 of sFLT-1, but not Domain 4, was immobilized on the sensor chip at a concentration of 30 μg/ml in 10 mM NaAc, pH 5. 50 μg/ml of the four Domain 4 constructs in 20 mM Tris-HCl, pH 7.4 were individually pre-incubated overnight at 4° C. with 50 nM sFLT-1 in HEPES buffer (O.O1M Hepes,pH 7.4, 0.15M NaCl, 3 mM EDTA, 0.005% polysorbate 20 (v/v)). Thereafter the pre-incubated suspensions were passed across the immobilized monoclonal antibody and binding monitored by mass sensitive detection, measured in response units (RU). […] A further control was also run whereby the four Domain 4 constructs, which have not been pre-incubated with sFLT-1, were passed over the immobilized monoclonal antibody. After each run the sensor chip was regenerated in 10 mM Glycine pH 1.75 buffer ready for the next experiment.

T1 sequence (P17948 other isoform, or with tags, fused parts or gaps limits assumed): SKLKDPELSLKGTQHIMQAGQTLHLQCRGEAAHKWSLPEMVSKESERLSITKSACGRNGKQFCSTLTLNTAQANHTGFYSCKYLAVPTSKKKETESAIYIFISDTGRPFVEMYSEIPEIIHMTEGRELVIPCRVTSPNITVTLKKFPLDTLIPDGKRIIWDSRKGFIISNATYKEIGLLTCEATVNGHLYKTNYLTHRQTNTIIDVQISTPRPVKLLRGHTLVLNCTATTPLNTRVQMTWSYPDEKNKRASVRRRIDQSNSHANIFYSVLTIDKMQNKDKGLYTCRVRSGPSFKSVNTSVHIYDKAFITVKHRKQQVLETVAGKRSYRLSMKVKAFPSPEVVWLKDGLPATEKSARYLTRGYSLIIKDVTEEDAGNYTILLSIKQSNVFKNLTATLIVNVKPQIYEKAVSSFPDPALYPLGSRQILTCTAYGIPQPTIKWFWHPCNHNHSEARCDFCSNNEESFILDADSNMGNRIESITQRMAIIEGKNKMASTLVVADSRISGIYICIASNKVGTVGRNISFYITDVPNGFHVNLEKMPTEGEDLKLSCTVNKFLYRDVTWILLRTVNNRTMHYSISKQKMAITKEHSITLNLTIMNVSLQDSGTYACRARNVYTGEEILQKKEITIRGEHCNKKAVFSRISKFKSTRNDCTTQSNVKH

Row | Binder | % inhibition of sFLT-1 [%]
1 | FLT-1 Domain 4 Construct 1 (residues 330-429), His-tagged (receptor, not shown: histidine tag from the E. coli expression vector) DKAFITVKHRKQQVLETVAGKRSYRLSMKVKAFPSPEVVWLKDGLPATEKSARYLTRGYSLIIKDVTEEDAGNYTILLSIKQSNVFKNLTATLIVNVKPQ | 64.7
2 | FLT-1 Domain 4 Construct 0 (residues 338-440), His-tagged (receptor, probably a printing error; also called sFLT-1 Dom; 4 (construct 0); His-Tagged Domain 4 (Construct 0); not shown: histidine tag from the E. coli expression vector) HRKQQVLETVAGKRSYRLSMKVKAFPSPEVVWLKDGLPATEKSARYLTRGYSLIIKDVTEEDAGNYTILLSIKQSNVFKNLTATLIVNVKPQIYEKAVSSFPD | 5.85
3 | FLT-1 Domain 4 Construct 2 (residues 330-440), His-tagged (receptor, not shown: histidine tag from the E. coli expression vector) DKAFITVKHRKQQVLETVAGKRSYRLSMKVKAFPSPEVVWLKDGLPATEKSARYLTRGYSLIIKDVTEEDAGNYTILLSIKQSNVFKNLTATLIVNVKPQIYEKAVSSFPD | 73.3
